Measurements as given in patent US20240369491A1.

Biological target: SARS-CoV-2 Spike RBD-His (Cat #: 40592-V08B) (SARS-CoV-2), P0DTC2

## CIEEQAKTFLDKFNHEAEDLFYQS (modifications not checked) [Cys-SBP-PEG4]
  N:Au ratio (XPS) after RBD binding: 1.45

## CIEEQAKTFLDKFNHEAEDLFYQS (modifications not checked) [Cys-SBP]
  N:Au ratio (XPS) after RBD binding: 1.31
